Test results as given in the supplement of paper PMC9170038.

System: K4 kissing-loop RNA reporter
Assay: apparent KD of K4 kissing-loop reporter; higher = weaker reporter binding
Conditions: Eterna round: R107
Procedure: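 RNA-MaP round R107: designed RNA switches with theophylline, tryptophan, arginine or FMN aptamers are transcribed on-chip within common flanks. They are titrated with a labelled K4 kissing-loop RNA reporter in RNA-MaP buffer (100 mM Tris pH 7.5, 80 mM KCl, 4 mM MgCl2), without ligand or with the indicated ligand. Median apparent KD per design.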

[1] = input ligand: theophylline 20 uM
[2] = input ligand: tryptophan 2.4 mM
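Note: bound reporter read as fluorescence of individual clusters on recovered sequencing chips by microscopy, with normalized cluster intensities fitted with a binding model.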

Sequence	apparent KD of K4 kissing-loop reporter (input ligand: FMN 200 uM) [µM]	apparent KD of K4 kissing-loop reporter (input ligand: arginine 13.2 mM) [µM]	apparent KD of K4 kissing-loop reporter (input ligand: none) [µM]	apparent KD of K4 kissing-loop reporter [1] [µM]	apparent KD of K4 kissing-loop reporter [2] [µM]
GAGUGGCAGACGGCCGCCACUCUUAGCAGCCAGCGGAGUGAUGUUCCGCCCGAGUGAUGUUCGGAGAGGACCGGGUUUGUUGUAA [Exclusion Tryptophan B GF 29]	0.119	0.146	0.146	0.149	0.125
GAUAUAGUGAUGUUAUAUACUGAUAGACAACGAGGACCGGUACGGCCGCCACUCGAGAGGGUGAAAUUAAUGAUAAAAUAAUAAU [ExyTryA#2]	0.322	0.351	0.356	0.307	0.27
GAUUCAGUGAUGUUGGAAGGCGAGCGGGAUACCAGCCGAGACUCAGGCCCUUGGCAGCCCACAUAUCCCAGGUAGAUAGUCGAUC [Same State - Theophylline A (Freestyle 9)]	0.185	0.118	0.17	0.165	0.16
GAUUCUGUUCGAAAGAACGGAAUCACGGAAGGAGCGAGAGAAAUCUCAGGUAGGUCGCCGAAUUUUUGAUAGUGAUGUUAUCAUU [Arginine A K4 2]	0.422	0.353	0.388	0.408	0.426
GAUUUAGAGGCGGCCGCCACUAGUGAUGUUAGUGAUGUUUGAUACUGAAUAUAUCUGCGUUUAGAUAGGACCGGGCCAGAUGGAG [qzwqmullin]	0.234	0.164	0.181	0.193	0.177
GCAGACACGCAGUGAUGUUGCGAAACGGAAGGAGCGCGUGAAAACGCAGGUAGGUCGCCGAAACAUAAAUUAUAAUUUUGUUUGC [Arginine A K4 13]	0.244	0.194	0.221	0.24	0.177
GCAGUCAAUCGACCACGAAAGUGGAUGGAUACCAGAGUCGAAAGACUCCCUUGGCAGCCAGUGAUGUUGGAAGACUGCAAUAAAA [#SwitchBubble 16 #K4Late]	1.12	0.357	0.622	0.479	0.468
GCAGUGAUGUUGCGCAUGUACAGUGGAGUGCGAGGACCGGUACGGCCGCCACUCGUACAGAACAAGCUAAUAUAUGGAUAGGUGA [IX]	0.418	0.525	0.543	0.51	0.306
GCAGUGAUGUUGCGGAUGUACAGUGGCGUGCGAGGACCGGUACGGCCGCCACUCGUACAGCACAAGCUAAUACAUCGAUAGGUGA [whbob_SS_Tryp_A_m2]	0.566	0.287	0.357	0.38	0.43
GCAGUGAUGUUGCGGAUGUACAGUGGGAUACGAGGACCGGUACGGCCGCCACUCGUACAGAACAAGCUAAUACAUCGAUAGGUGA [XII]	0.265	0.281	0.339	0.373	0.301
GCAGUGAUGUUGCUGAUGUGCAGUGGUAGUCGAGGACCGGUACGGCCGCCACUCGGUGAGAAUUUGCUAAUACAUCGAUAAGUGA [XVII]	1.21	0.614	1.28	0.858	0.904
GCAUCCAUGGCAGGAUAUAGGUUCGUGGAGUGAUGUUCCAUAACCCGAGUGAUGUUCGUUAUCCACCUAGAAGGGCCAUGGAUGC [whbob_Ex_FMNB__2th211]	0.212	0.204	0.218	0.215	0.184
GCAUGCAUGGCAGGAUAUAAUCUGGAGUGAUGUUCCUUUAACCUUUCGAACGGCGAGCCAGGUUGAUUAGAAGGGCCAUGCAUGC	0.435	0.476	0.622	0.628	0.53
GCCAGUGAUGUUGGCAUUUCGAGCCAUGAAGGAGCGCACGGAAGUGCAGGUAGGUCGCAUGGUACUUAAGAUAUUAUCCUAAGUA [Atceis]	0.21	0.162	0.192	0.177	0.129
GCCAUCAGGUCGCAAGACCUGAUAGCCGAUACCAGCGCGAAGGUGCGCCCUUGGCAGCGGCACCGAGUGAUGUUCGGUCAGGCGG [#2 Same State - Theophylline A Attempt #3 (HarryS)]	0.49	0.49	0.595	0.291	0.554
GCCGUACGCAUGGAUACCAGCAACCCUGCCAUCCCAGUGAUGUUGGGAGGAACAUUCUCAUGCCCUUGGCAGCCAUGCGUACGGC	0.534	0.358	0.473	0.384	0.459
GCCGUACGCAUGGAUACCAGUCUUAGAGUGAUGUUCUAUACGAUUGCGCCUGGAUCAAUGGACCCUUGGCAGCCAUGCGUACGGC	0.144	0.112	0.123	0.114	0.124
GCCGUAGAUGGAAGGAGCGAGUCCAAACCAUAUUGCUGAAAAUUCGAGUGAUGUUCGUAAGCUCAGGUAGGUCGCCAUCUACGGC	0.206	0.184	0.209	0.161	0.187
GCCGUAGAUUGAAGGAGCGGGAUAGAGAAAGUGAUGUUUUCUCUUUGACGGCGUCCUCGAUCCCAGGUAGGUCGCAAUCUACGGC	0.0761	0.0752	0.0812	0.0735	0.0702
GCCGUAGAUUGAAGGAGCGUUCUUCAGCAAACUUGCAGUGAUGUUGCAUUAAACAUGUAAGAACAGGUAGGUCGCAAUCUACGGC	0.145	0.138	0.155	0.129	0.121
GCCUAGCAGGGAAGGAGCGCCAUAUAAUUAAAAGUUAAUUAAUGAGUGAUGUUCAAAUAAUGGCAGGUAGGUCGCCCUGCUAGGC [KL-SSArg B9]	0.378	0.289	0.329	0.316	0.323
GCCUAGCAGGGAAGGAGCGGCAUAAGCAUAGAUAAUAUGCAGUUAGUGAUGUUAAUACUAUGCCAGGUAGGUCGCCCUGCUAGGC [KL-SSArg B7]	0.752	0.457	0.688	0.623	0.537
